Columns and labels:
[1] = target: DC-SIGN on THP-1 cells induced with PMA and IL-4 (DC-THP-1) (human (endogenous in THP-1)) (UniProt Q9NNX6)
[2] = target: human DC-SIGN expressed on HEK 293T cells (DC-HEK) (human) (UniProt Q9NNX6)
[3] = target: DC-SIGN on THP-1 cells induced with PMA and IL-4 (DC-THP-1) (human (endogenous in THP-1)) (UniProt Q9NNX6); assay: cell binding assay (immunofluorescence read on a microplate reader); DC-HEK or DC-THP-1 cells in microtiter wells (1 x 10^5 cells/well); spike pseudotypes pre-incubated with or without rfhSP-D (20 µg/ml) added for 2 h at room temperature; fixed, anti-spike and Alexa Fluor 488 secondary antibody
[4] = target: human DC-SIGN expressed on HEK 293T cells (DC-HEK) (human) (UniProt Q9NNX6); assay: as above

Row | Substance | luciferase reporter activity (pseudotype transduction of DC-THP-1 cells), with rfhSP-D 20 µg/ml against untreated [1] [%] | luciferase reporter activity (pseudotype transduction of DC-HEK cells), with rfhSP-D 20 µg/ml against untreated [2] [%] | increase of binding with rfhSP-D (20 µg/ml) against untreated [3] [%] | increase of binding with rfhSP-D (20 µg/ml) against untreated [4] [%]
1 | SARS-CoV-2 spike protein on lentiviral pseudotypes (from UniProt P0DTC2 14-1273) (natural protein) | 90 | 190 | – | –
2 | SARS-CoV-2 spike protein on lentiviral pseudotypes (from UniProt P0DTC2 14-1273) (natural protein; other documents disagree on this pair) | – | – | 25 | 50

Reference: publication PMC9367475
